Key:
Assay in all cases: cell-based or functional assay
[1] = biological target: HIV-1 93IN905 Env on pseudovirus (HIV-1)
[2] = biological target: HIV-1 LAVIC_18 Env on pseudovirus (HIV-1)
[3] = biological target: HIV-1 98IN022 Env on pseudovirus (HIV-1)
[4] = biological target: HIV-1 MGRM-D-004 Env (HIV-1)
[5] = biological target: HIV-1 APV_6 Env on pseudovirus (HIV-1)
[6] = biological target: HIV-1 MGRM-D-016 Env (HIV-1)
[7] = biological target: HIV-1 MGRM-G-013 Env (HIV-1)
[8] = biological target: HIV-1 THR0.18 (Acute) Env on pseudovirus (HIV-1)
[9] = biological target: HIV-1 MGRM-Chronic-B-008 Env on pseudovirus (HIV-1)
[10] = biological target: HIV-1 93MW959 Env on pseudovirus (HIV-1)
[11] = biological target: HIV-1 92UG024 Env (HIV-1)
[12] = biological target: HIV-1 MGRM-D-011 Env (HIV-1)
[13] = biological target: HIV-1 MGRM-AE-008 Env (HIV-1)
[14] = biological target: HIV-1 MGRM-G-006 Env (HIV-1)
[15] = biological target: HIV-1 98CN006 Env on pseudovirus (HIV-1)
[16] = biological target: HIV-1 TRO.11 (Acute) Env on pseudovirus (HIV-1)
[17] = biological target: HIV-1 MGRM-G-009 Env (HIV-1)
[18] = biological target: HIV-1 MGRM-C-022 Env on pseudovirus (HIV-1)
[19] = biological target: HIV-1 MGRM-F1-008 Env (HIV-1)
[20] = biological target: HIV-1 JRCSF Env (HIV-1) (UniProt P20871)
[21] = biological target: HIV-1 CMU02 Env (HIV-1)
[22] = biological target: HIV-1 SF162 Env on pseudovirus (HIV-1) (UniProt P19550)
[23] = biological target: HIV-1 MGRM-D-012 Env (HIV-1)
[24] = biological target: HIV-1 MGRM-C-007 Env on pseudovirus (HIV-1)
[25] = biological target: HIV-1 SC422661.8 (Acute) Env on pseudovirus (HIV-1)
[26] = biological target: HIV-1 MGRM-Chronic-B-012 Env on pseudovirus (HIV-1)
[27] = biological target: HIV-1 93TH305 Env on pseudovirus (HIV-1)
[28] = biological target: HIV-1 MGRM-F1-004 Env (HIV-1)
[29] = biological target: HIV-1 MGRM-AE-007 Env (HIV-1)
[30] = biological target: HIV-1 MGRM-F1-016 Env (HIV-1)
[31] = biological target: HIV-1 MGRM-G-004 Env (HIV-1)
[32] = biological target: HIV-1 VLGCB3 Env on pseudovirus (HIV-1)
[33] = biological target: HIV-1 MGRM-D-013 Env (HIV-1)
[34] = biological target: HIV-1 MGRM-F1-023 Env (HIV-1)
[35] = biological target: HIV-1 MGRM-C-013 Env on pseudovirus (HIV-1)
[36] = biological target: HIV-1 MGRM-C-008 Env on pseudovirus (HIV-1)
[37] = biological target: HIV-1 92UG046 Env (HIV-1)
[38] = biological target: HIV-1 MGRM-AE-003 Env (HIV-1)
[39] = biological target: HIV-1 IAVI-C18 Env (HIV-1)
[40] = biological target: HIV-1 MGRM-C-009 Env on pseudovirus (HIV-1)
[41] = biological target: HIV-1 MGRM-Chronic-B-003 Env on pseudovirus (HIV-1)
[42] = biological target: HIV-1 MGRM-D-028 Env (HIV-1)
[43] = biological target: aMLV envelope (negative control pseudovirus)
[44] = biological target: HIV-1 MGRM-F1-022 Env (HIV-1)
[45] = biological target: HIV-1 MGRM-G-017 Env (HIV-1)
[46] = biological target: HIV-1 MGRM-D-026 Env (HIV-1)
[47] = biological target: HIV-1 MGRM-A-007 Env (HIV-1)
[48] = biological target: HIV-1 92UG031 Env (HIV-1)
[49] = biological target: HIV-1 MGRM-A-012 Env (HIV-1)
[50] = biological target: HIV-1 MGRM-A-008 Env (HIV-1)
[51] = biological target: HIV-1 MGRM-A-004 Env (HIV-1)
[52] = biological target: HIV-1 MGRM-A-009 Env (HIV-1)

b12 (antibody)
IC50 [1]: 21.4 µg/mL
IC50 [2]: > 50 µg/mL
IC50 [3]: 0.42 µg/mL
IC50 (µg/ml), pseudovirus neutralization [4]: > 50 µg/mL
IC50 [5]: > 50 µg/mL
IC50 (µg/ml), pseudovirus neutralization [6]: 1.12 µg/mL
IC50 (µg/ml), pseudovirus neutralization [7]: > 50 µg/mL
IC50 [8]: 3.62 µg/mL
IC50 [9]: 2.82 µg/mL
IC50 [10]: > 50 µg/mL
IC50 (µg/ml), pseudovirus neutralization [11]: 45.6 µg/mL
neutralization IC50 [11]: 49.1 µg/mL
neutralization IC90 [11]: > 50 µg/mL
IC50 (µg/ml), pseudovirus neutralization [12]: 7.75 µg/mL
IC50 (µg/ml), pseudovirus neutralization [13]: > 50 µg/mL
IC50 (µg/ml), pseudovirus neutralization [14]: > 50 µg/mL
IC50 [15]: > 50 µg/mL
IC50 [16]: > 50 µg/mL
IC50 (µg/ml), pseudovirus neutralization [17]: > 50 µg/mL
IC50 [18]: > 50 µg/mL
IC50 (pseudovirus neutralization) [19]: > 50 µg/mL
neutralization IC50 [20]: 0.16 µg/mL
neutralization IC90 [20]: 1.17 µg/mL
IC50 (µg/ml), pseudovirus neutralization [21]: 29.3 µg/mL
neutralization IC50 [21]: 4.25 µg/mL
neutralization IC90 [21]: 34.2 µg/mL
IC50 [22]: 0.02 µg/mL
IC50 (µg/ml), pseudovirus neutralization [23]: 0.13 µg/mL
IC50 [24]: > 50 µg/mL
IC50 [25]: 6.11 µg/mL
IC50 [26]: > 50 µg/mL
IC50 [27]: 4.17 µg/mL
IC50 (pseudovirus neutralization) [28]: > 50 µg/mL
IC50 (µg/ml), pseudovirus neutralization [29]: > 50 µg/mL
IC50 (pseudovirus neutralization) [30]: > 50 µg/mL
IC50 (µg/ml), pseudovirus neutralization [31]: > 50 µg/mL
IC50 [32]: 0.15 µg/mL
IC50 (µg/ml), pseudovirus neutralization [33]: > 50 µg/mL
IC50 (pseudovirus neutralization) [34]: > 50 µg/mL
IC50 [35]: > 50 µg/mL
IC50 [36]: 1.51 µg/mL
IC50 (µg/ml), pseudovirus neutralization [37]: 0.07 µg/mL
IC50 (µg/ml), pseudovirus neutralization [38]: > 50 µg/mL
neutralization IC50 [39]: > 50 µg/mL
neutralization IC90 [39]: > 50 µg/mL
IC50 [40]: > 50 µg/mL
IC50 [41]: > 50 µg/mL
IC50 (µg/ml), pseudovirus neutralization [42]: 0.78 µg/mL
IC50 (pseudovirus neutralization) [43]: > 50 µg/mL
IC50 (pseudovirus neutralization) [44]: > 50 µg/mL
IC50 (µg/ml), pseudovirus neutralization [45]: > 50 µg/mL
IC50 (µg/ml), pseudovirus neutralization [46]: 1.55 µg/mL
neutralization IC50 [47]: > 50 µg/mL
neutralization IC50 [48]: > 50 µg/mL
neutralization IC50 [49]: > 50 µg/mL
neutralization IC50 [50]: > 50 µg/mL
neutralization IC50 [51]: > 50 µg/mL
neutralization IC50 [52]: 4.34 µg/mL
